Measured values from PMC10786891, “Massively parallel profiling of RNA-targeting CRISPR-Cas13d”.
Numbering of substitutions follows the chain as printed. Names may count otherwise.

T1: EsCas13d, nuclease-dead (Eubacterium siraeum, UniProt B0MS50, R295A;H300A;R849A;H854A)
T1 sequence: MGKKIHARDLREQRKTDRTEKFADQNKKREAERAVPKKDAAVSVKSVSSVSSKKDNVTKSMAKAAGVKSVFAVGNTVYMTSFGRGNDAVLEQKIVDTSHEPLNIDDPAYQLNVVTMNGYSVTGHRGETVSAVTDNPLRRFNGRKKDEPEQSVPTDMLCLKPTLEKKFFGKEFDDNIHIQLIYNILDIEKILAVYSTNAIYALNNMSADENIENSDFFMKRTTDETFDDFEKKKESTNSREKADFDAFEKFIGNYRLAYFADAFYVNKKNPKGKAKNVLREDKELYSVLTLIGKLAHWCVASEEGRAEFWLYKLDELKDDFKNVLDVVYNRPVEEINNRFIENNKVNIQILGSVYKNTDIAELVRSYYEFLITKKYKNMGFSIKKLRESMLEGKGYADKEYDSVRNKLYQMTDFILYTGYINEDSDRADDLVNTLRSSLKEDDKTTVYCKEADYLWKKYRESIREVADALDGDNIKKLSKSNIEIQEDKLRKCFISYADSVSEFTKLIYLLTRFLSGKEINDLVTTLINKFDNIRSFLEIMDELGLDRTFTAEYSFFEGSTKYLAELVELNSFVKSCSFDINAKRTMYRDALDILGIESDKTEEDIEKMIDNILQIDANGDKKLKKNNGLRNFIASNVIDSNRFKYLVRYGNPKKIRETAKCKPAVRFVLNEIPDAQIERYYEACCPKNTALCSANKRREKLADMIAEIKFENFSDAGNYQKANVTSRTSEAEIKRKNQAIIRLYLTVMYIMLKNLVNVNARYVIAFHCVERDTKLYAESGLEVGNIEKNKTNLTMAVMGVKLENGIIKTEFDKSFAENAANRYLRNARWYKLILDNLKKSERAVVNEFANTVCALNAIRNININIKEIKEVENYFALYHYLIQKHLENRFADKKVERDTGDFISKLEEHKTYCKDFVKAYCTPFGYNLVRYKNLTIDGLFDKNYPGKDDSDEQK

B1: target 1 C6U,U8G (mixed)
RNA 1: CACCCGUGCAAAAAUGCAGGGGUCUAAAACUGAGCGGAUAACCUCUCUAUGG
RNA 2: GGGAAUGGAUCCACAUCUACGAAUUCGUACCAUAGAGAGGUUAGCUGCUCACCGAGAUCGGAAGAGCACACGU
B2: target 1 C7U,U10G (mixed)
RNA 1: B1 RNA 1
RNA 2: B1 RNA 2 with U42G, G44U, C45U, U46C
B3: target 1 U11G,G13C (mixed)
RNA 1: B1 RNA 1
RNA 2: B1 RNA 2 with G39C, U41G, G44U, U46C
B4: target 3 U22A (mixed)
RNA 1: CACCCGUGCAAAAUUGCAGGGGUCUAAAACGACCUGAAUAUUUCAGAUCAAA
RNA 2: GGGAAUGGAUCCACAUCUACGAAUUCGUUAUUGAUCUGAAAUAUUCAGGUCUGCAGAUCGGAAGAGCACACGU
B5: target 3 A18G,U22C (mixed)
RNA 1: B4 RNA 1
RNA 2: B4 RNA 2 with A30C, A34G
B6: target 3 insU 3' of 9,insG 3' of 8 (mixed)
RNA 1: B4 RNA 1
RNA 2: GGGAAUGGAUCCACAUCUACGAAUUCGUUUUUGAUCUGAAAUAUUGUCAGGUCUGCAGAUCGGAAGAGCACACGU
B7: target 3 C6A,U22C (mixed)
RNA 1: B4 RNA 1
RNA 2: B4 RNA 2 with A30C, C46A
B8: target 3 A5G,U7G (mixed)
RNA 1: B4 RNA 1
RNA 2: B4 RNA 2 with A30U, U45G, A47G
B9: target 3 U2G,A11G (mixed)
RNA 1: B4 RNA 1
RNA 2: B4 RNA 2 with A30U, A41G, U50G
B10: target 3 complement block 4-6 (mixed)
RNA 1: B4 RNA 1
RNA 2: B4 RNA 2 with A30U, C46G, A47U, G48C
B11: target 3 C1U,C16U (mixed)
RNA 1: B4 RNA 1
RNA 2: B4 RNA 2 with A30U, C36U, C51U
B12: target 3 A5C,U8G (mixed)
RNA 1: B4 RNA 1
RNA 2: B4 RNA 2 with A30U, U44G, A47C
B13: target 3 C1G,U22A (mixed)
RNA 1: B4 RNA 1
RNA 2: B4 RNA 2 with C51G
B14: target 3 insA 3' of 14 (mixed)
RNA 1: B4 RNA 1
RNA 2: GGGAAUGGAUCCACAUCUACGAAUUCGUUUUUGAUCUGAAAAUAUUCAGGUCUGCAGAUCGGAAGAGCACACGU
B15: target 3 insU 3' of 5,insG 3' of 1 (mixed)
RNA 1: B4 RNA 1
RNA 2: B6 RNA 2 with G46C, U47A, C48U, A49G, G51U, U52C, C53G
B16: target 3 insA 3' of 4 (mixed)
RNA 1: B4 RNA 1
RNA 2: B14 RNA 2 with A42U, U43A, A44U, U46C, C47A, A48G, G49A
B17: target 3 insU 3' of 5,insC 3' of 2 (mixed)
RNA 1: B4 RNA 1
RNA 2: B6 RNA 2 with G46C, U47A, C48U, A49G, G51U, U52C
B18: target 3 insU 3' of 5,insU 3' of 1 (mixed)
RNA 1: B4 RNA 1
RNA 2: B6 RNA 2 with G46C, U47A, C48U, A49G, G51U, U52C, C53U
B19: target 3 insA 3' of 10,insG 3' of 7 (mixed)
RNA 1: B4 RNA 1
RNA 2: B6 RNA 2 with U44A, G46U, U47G
B20: target 3 insU 3' of 5,insA 3' of 1 (mixed)
RNA 1: B4 RNA 1
RNA 2: B6 RNA 2 with G46C, U47A, C48U, A49G, G51U, U52C, C53A
B21: target 3 insC 3' of 11,insC 3' of 3 (mixed)
RNA 1: B4 RNA 1
RNA 2: B6 RNA 2 with U42C, A43U, U44A, G46U, U47C, C48A, A49G, G51C
B22: target 3 insU 3' of 22,insC 3' of 3 (mixed)
RNA 1: B4 RNA 1
RNA 2: GGGAAUGGAUCCACAUCUACGAAUUCGUUUUUUGAUCUGAAAUAUUCAGGCUCUGCAGAUCGGAAGAGCACACGU
B23: target 3 insC 3' of 12,insG 3' of 2 (mixed)
RNA 1: B4 RNA 1
RNA 2: GGGAAUGGAUCCACAUCUACGAAUUCGUUUUUGAUCUGAACAUAUUCAGGUGCUGCAGAUCGGAAGAGCACACGU
B24: target 3 G3C,A18G (mixed)
RNA 1: B4 RNA 1
RNA 2: B4 RNA 2 with A30U, A34G, G49C
B25: target 3 insA 3' of 22,insG 3' of 7 (mixed)
RNA 1: B4 RNA 1
RNA 2: B22 RNA 2 with U31A, C47G, A48C, G49A, C51G
B26: target 3 U2A,A5C (mixed)
RNA 1: B4 RNA 1
RNA 2: B4 RNA 2 with A30U, A47C, U50A
B27: target 3 U2G,G4C (mixed)
RNA 1: B4 RNA 1
RNA 2: B4 RNA 2 with A30U, G48C, U50G
B28: target 3 insA 3' of 8,insG 3' of 5 (mixed)
RNA 1: B4 RNA 1
RNA 2: B6 RNA 2 with U45A, G46U, U47C, C48A, A49G
B29: target 3 insG 3' of 9,insG 3' of 9 (mixed)
RNA 1: B4 RNA 1
RNA 2: B6 RNA 2 with U44G, U45G, G46U
B30: target 3 insG 3' of 2,insU 3' of 1 (mixed)
RNA 1: B4 RNA 1
RNA 2: B6 RNA 2 with G46C, U47A, C48G, A49G, G50U, U52C, C53U
B31: target 3 G4A,A5G (mixed)
RNA 1: B4 RNA 1
RNA 2: B4 RNA 2 with A30U, A47G, G48A
B32: target 3 A5G,A9G (mixed)
RNA 1: B4 RNA 1
RNA 2: B4 RNA 2 with A30U, A43G, A47G
B33: target 3 G4C,C6G (mixed)
RNA 1: B4 RNA 1
RNA 2: B4 RNA 2 with A30U, C46G, G48C

The binders below were run against T1, EsCas13d, nuclease-dead (assay: crRNA (strand 1, pre-loaded); Mg2+; 40 mM Tris-HCl pH 7.5, 150 mM NaCl, 6 mM MgCl2, 1 mM DTT, 0.1% Tween-20, 0.2 mg/ml BSA; 25 C; 10 min per concentration, then washed). Conditions: tags: His6-TwinStrep-SUMO cleaved; N-terminal SNAP kept (SNAP-Surface 488); label: 3' end held by stalled T7 RNA polymerase.

| Binder | Kd [nM] |
| --- | --- |
| B1 | 11 ± 0.5 |
| B2 | 11.2 ± 0.5 |
| B3 | ~70 |
| B4 | 14.8 ± 1.45 |
| B5 | 13.8 ± 2 |
| B6 | 82 ± 19 |
| B7 | 49.5 ± 7.5 |
| B8 | 44 ± 6 |
| B9 | 62.5 ± 12 |
| B10 | 23.7 ± 2.45 |
| B11 | 66.5 ± 15.5 |
| B12 | 74 ± 12 |
| B13 | 25.1 ± 5.2 |
| B14 | 60 ± 12 |
| B15 | 27 ± 4.5 |
| B16 | 65.5 ± 15 |
| B17 | 40.5 ± 6 |

| Binder | Kd [nM] |
| --- | --- |
| B18 | 31 ± 10 |
| B19 | 73.5 ± 9.5 |
| B20 | 36.5 ± 10.5 |
| B21 | 50 ± 6 |
| B22 | 12.2 ± 1.35 |
| B23 | 94 ± 39.5 |
| B24 | 38.7 ± 6.25 |
| B25 | 96 ± 32.5 |
| B26 | 47.6 ± 10.6 |
| B27 | 3.65 ± 0.55 |
| B28 | 68 ± 15 |
| B29 | 102 ± 21 |
| B30 | 67.5 ± 9 |
| B31 | 19.5 ± 1.7 |
| B32 | 73 ± 14 |
| B33 | 24.1 ± 3.15 |
